The text below walks through data of paper PMC1820849, “Identification of a Small TAF Complex and Its Role in the Assembly of TAF-Containing Complexes” (PLoS ONE, 2007).

Common to all, as to test: FRET or BRET; sensitized emission FRET in the nucleus of living HeLa cells transfected with CFP and YFP fusion vectors; mean FRET efficiency of cells above a 5% threshold
Holding throughout (conditions): partners not purified

The target in one experiment is T1, YFP-SPT7L (human, UniProt O94864 1-414).
T1 construct: human SPT7L as a YFP fusion; vector described in earlier work; source: HeLa cells, transfected, in living cells
T1 sequence (looked up): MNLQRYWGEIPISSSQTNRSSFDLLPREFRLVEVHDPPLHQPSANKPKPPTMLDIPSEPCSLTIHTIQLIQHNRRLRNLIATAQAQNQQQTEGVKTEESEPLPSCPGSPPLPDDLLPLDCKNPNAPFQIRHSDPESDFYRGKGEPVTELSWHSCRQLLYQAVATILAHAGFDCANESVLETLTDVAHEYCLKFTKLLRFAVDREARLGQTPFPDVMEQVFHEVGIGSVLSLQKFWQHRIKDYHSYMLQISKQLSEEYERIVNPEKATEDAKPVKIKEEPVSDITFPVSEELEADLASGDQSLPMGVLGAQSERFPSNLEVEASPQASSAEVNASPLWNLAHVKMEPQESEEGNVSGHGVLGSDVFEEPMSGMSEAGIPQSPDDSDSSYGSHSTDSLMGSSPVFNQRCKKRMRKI

The target in a further experiment is T2, YFP-TAF10 (human, UniProt Q12962 1-218).
T2 construct: human TAF10 as a YFP fusion; vector described in earlier work; source: HeLa cells, transfected, in living cells
T2 sequence (Q12962 whole entry, the tested form may be a part): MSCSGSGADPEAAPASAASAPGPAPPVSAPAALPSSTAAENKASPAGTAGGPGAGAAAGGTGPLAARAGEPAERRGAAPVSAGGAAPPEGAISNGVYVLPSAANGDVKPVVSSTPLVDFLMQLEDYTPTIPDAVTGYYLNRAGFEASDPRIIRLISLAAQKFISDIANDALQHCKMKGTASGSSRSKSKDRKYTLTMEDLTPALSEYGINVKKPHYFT

Another experiment deals with T3, YFP-TAF9 (UniProt Q16594 1-264).
T3 construct: TAF9 as a YFP fusion; the construct is not described; source: HeLa cells, transfected, in living cells
T3 sequence (looked up): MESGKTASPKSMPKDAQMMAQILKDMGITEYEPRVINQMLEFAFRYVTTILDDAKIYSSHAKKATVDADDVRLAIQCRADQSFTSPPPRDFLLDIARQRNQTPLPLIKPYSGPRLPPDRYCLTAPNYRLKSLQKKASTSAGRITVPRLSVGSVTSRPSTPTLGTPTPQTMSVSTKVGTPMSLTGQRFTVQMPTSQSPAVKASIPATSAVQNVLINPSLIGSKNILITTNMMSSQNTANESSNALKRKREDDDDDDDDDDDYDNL

B1: CFP-TAF8 (natural protein, UniProt Q7Z7C8 1-310, looked up)
chain: MADAAATAGAGGSGTRSGSKQSTNPADNYHLARRRTLQVVVSSLLTEAGFESAEKASVETLTEMLQSYISEIGRSAKSYCEHTARTQPTLSDIVVTLVEMGFNVDTLPAYAKRSQRMVITAPPVTNQPVTPKALTAGQNRPHPPHIPSHFPEFPDPHTYIKTPTYREPVSDYQVLREKAASQRRDVERALTRFMAKTGETQSLFKDDVSTFPLIAARPFTIPYLTALLPSELEMQQMEETDSSEQDEQTDTENLALHISMEDSGAEKENTSVLQQNPSLSGSRNGEENIIDNPYLRPVKKPKIRRKKSLS
notes: TAF8 as a CFP fusion; vector described in earlier work; source: HeLa cells, transfected, in living cells
As for B1, the FRET efficiency is 15.8% with YFP-SPT7L and 16.9% with YFP-TAF10.

B2: CFP-TAF6 (natural protein)
chain: not shown
notes: TAF6 as a CFP fusion; the construct is not described; source: HeLa cells, transfected, in living cells
B2: the FRET efficiency in the experiment with YFP-TAF9 is 27.1%.
